Source: patent US20200277377A1 (WUXI BIOLOGICS SHANGHAI, published 2020)

T1: hCTLA4_ECD.His (N145Q) (human, UniProt P16410 36-161)
T1 construct: extracellular domain; Glycosylation-site mutein, expressed in HEK293F cells; also called CTLA-4 N145Q
T1 sequence (looked up): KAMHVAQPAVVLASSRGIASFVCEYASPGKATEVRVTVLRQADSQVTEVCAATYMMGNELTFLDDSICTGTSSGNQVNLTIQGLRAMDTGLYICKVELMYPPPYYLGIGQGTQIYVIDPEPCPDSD

T2: hCTLA4_ECD.His point mutant V73 to alanine (human, UniProt P16410 36-161)
T2 construct: extracellular domain; alanine-scan mutein, HEK293F supernatant
T2 sequence (looked up): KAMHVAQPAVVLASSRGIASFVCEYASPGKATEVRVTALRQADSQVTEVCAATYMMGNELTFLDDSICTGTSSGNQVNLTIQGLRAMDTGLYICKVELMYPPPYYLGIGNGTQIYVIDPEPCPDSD

T3: hCTLA4_ECD.His point mutant E83 to alanine (human, UniProt P16410 36-161)
T3 construct: extracellular domain; alanine-scan mutein, HEK293F supernatant
T3 sequence (looked up): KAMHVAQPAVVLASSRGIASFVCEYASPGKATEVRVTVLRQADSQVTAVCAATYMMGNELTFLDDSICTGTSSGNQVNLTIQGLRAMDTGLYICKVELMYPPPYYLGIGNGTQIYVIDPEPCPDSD

T4: hCTLA4_ECD.His point mutant V84 to alanine (human, UniProt P16410 36-161)
T4 construct: extracellular domain; alanine-scan mutein, HEK293F supernatant
T4 sequence (looked up): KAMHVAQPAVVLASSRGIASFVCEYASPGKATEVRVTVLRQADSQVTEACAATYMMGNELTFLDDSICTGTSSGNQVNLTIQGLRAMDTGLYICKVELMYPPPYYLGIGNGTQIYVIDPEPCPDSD

T5: hCTLA4_ECD.His point mutant P138 to alanine (human, UniProt P16410 36-161)
T5 construct: extracellular domain; alanine-scan mutein, HEK293F supernatant
T5 sequence (looked up): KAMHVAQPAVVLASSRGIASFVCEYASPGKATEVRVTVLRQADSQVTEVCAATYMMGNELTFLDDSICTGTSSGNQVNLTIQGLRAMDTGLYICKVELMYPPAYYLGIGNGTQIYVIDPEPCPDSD

T6: hCTLA4_ECD.His point mutant P136 to alanine (human, UniProt P16410 36-161)
T6 construct: extracellular domain; alanine-scan mutein, HEK293F supernatant
T6 sequence (looked up): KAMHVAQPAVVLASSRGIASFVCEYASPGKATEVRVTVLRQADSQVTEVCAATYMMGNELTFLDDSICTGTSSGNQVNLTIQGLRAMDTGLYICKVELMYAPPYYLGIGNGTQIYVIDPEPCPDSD

T7: hCTLA4_ECD.His point mutant R70 to alanine (human, UniProt P16410 36-161)
T7 construct: extracellular domain; alanine-scan mutein, HEK293F supernatant
T7 sequence (looked up): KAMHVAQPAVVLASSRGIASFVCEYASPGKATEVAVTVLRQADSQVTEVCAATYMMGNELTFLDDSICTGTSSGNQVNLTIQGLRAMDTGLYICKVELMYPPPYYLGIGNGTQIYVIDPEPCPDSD

T8: hCTLA4_ECD.His (N113 Q) (human, UniProt P16410 36-161)
T8 construct: extracellular domain; Glycosylation-site mutein, expressed in HEK293F cells; also called CTLA-4 with N113Q
T8 sequence (looked up): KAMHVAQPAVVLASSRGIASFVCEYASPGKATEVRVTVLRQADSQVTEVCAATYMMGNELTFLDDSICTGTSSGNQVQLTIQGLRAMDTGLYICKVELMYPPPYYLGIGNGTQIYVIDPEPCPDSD

T9: human CTLA-4.ECD-6×His (human, UniProt P16410 36-161)
T9 construct: extracellular domain; also called WBP316.hCTLA-4.ECD-6×His; hCTLA4-His (WT)
T9 sequence: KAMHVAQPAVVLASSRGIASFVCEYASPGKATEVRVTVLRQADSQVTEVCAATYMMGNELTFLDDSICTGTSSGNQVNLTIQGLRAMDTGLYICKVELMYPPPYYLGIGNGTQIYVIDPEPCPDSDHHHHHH


Columns and labels:
hCTLA4_ECD.His (N145Q) [1] = target: T1, hCTLA4_ECD.His (N145Q); experiment: capture ELISA: W3162-1.146.19-z12 captured on anti-human Fc, hCTLA4-His mutein supernatant titrated (ng/ml), HRP-anti-His [B]
[2] = target: T2, hCTLA4_ECD.His point mutant V73 to …; experiment: capture ELISA, alanine scan, vs silent alanine substitutions
Method: (§1) In order to test how the mutations affect antibody-binding, a capture ELISA was conducted. […] After interacting with the supernatant that contains quantified CTLA4 muteins, HRP conjugated anti-His antibody (1:5000; Rockland Immunochemicals, Pottstown, Pa.) was added as detection antibody. TMB was used as substance of HRP. Absorbance was normalized according to the average of control mutants. After setting an additional cutoff to the binding fold change (<0.55), the final determined epitope residues were identified.

[3] = target: T3, hCTLA4_ECD.His point mutant E83 to …; experiment: as above
Method: as §1

[4] = target: T4, hCTLA4_ECD.His point mutant V84 to …; experiment: as above
Method: as §1

[5] = target: T5, hCTLA4_ECD.His point mutant P138 to …; experiment: as above
Method: as §1

[6] = target: T6, hCTLA4_ECD.His point mutant P136 to …; experiment: as above
Method: as §1

[7] = target: T7, hCTLA4_ECD.His point mutant R70 to …; experiment: as above
Method: as §1

hCTLA4_ECD.His (N113 Q) = target: T8, hCTLA4_ECD.His (N113 Q); experiment: capture ELISA: W3162-1.154.8-z35 captured on anti-human Fc, hCTLA4-His mutein supernatant titrated (ng/ml), HRP-anti-His [C]
hCTLA4_ECD.His (N145Q) [8] = target: T1, hCTLA4_ECD.His (N145Q); experiment: as above
human CTLA-4.ECD-6×His = target: T9, human CTLA-4.ECD-6×His; experiment: capture ELISA: W3162-1.154.8-z35 captured on anti-human Fc, hCTLA4-His supernatant titrated (ng/ml), HRP-anti-His [C]

EC50 (read off the curve) (hCTLA4_ECD.His (N145Q) [1]) [ng/mL]	Fold change [2] [fold]	Fold change [3] [fold]	Fold change [4] [fold]	Fold change [5] [fold]	Fold change [6] [fold]	Fold change [7] [fold]	EC50 (read off the curve) (hCTLA4_ECD.His (N113 Q)) [ng/mL]	EC50 (read off the curve) (hCTLA4_ECD.His (N145Q) [8]) [ng/mL]	EC50 (read off the curve) (human CTLA-4.ECD-6×His) [ng/mL]	Binder
~90	0.338	0.405	0.201	0.445	0.231	0.507	–	–	–	W3162-1.146.19-z12-uAb.IgG1K (antibody, V domains shown, Humanized; label says IgG1K) VH: QVQLQESGPGLVKPSETLSLTCSVTYHTITSGYDWTWIRKPPGKGMEWIGYISYSGNTNYNPSLKSRVTISRDTSKNQFFLKLSSVTAADTAVYYCASMMVPHYYVMDAWGQGTLVTVSS VL: DIVMTQTPLSLSVTPGQPASISCRSSQSLLNSDGNTYLYWYLQKPGQSPQLLIYLVSKLGSGVPNRFSGSGSGTDFTLKISRVEAEDVGVYYCVQGTHDPWTFGGGTKVEIK
–	0.498	0.479	0.232	0.339	0.155	0.515	~3	~3	~3	W3162_1.154.8-z35-uAb.IgG1K (antibody, V domains shown, Humanized; label says IgG1K) VH: QVQLVQSGAEVKKPGSSVKVSCKASGYTFTNYFMNWVRQAPGQGLEWMGRVDPEQGRADYAEKFKKRVTITADKSTSTAYMELSSLRSEDTAVYYCARRAMDNYGFAYWGQGTLVTVSS VL: EIVLTQSPDFQSVTPKEKVTITCSANSALSYMYWYQQKPDQSPKLWVHGTSNLASGVPSRFSGSGSGTDFTLTINSLEAEDAATYYCHHWSNTQWTFGGGTKVEIK
